Assay results published in patent US20230095569A1.
Residue numbers refer to the chain shown, from its start.

B1: Ab01 (antibody, V domains shown)
VH: DVQLQESGPGLVKPSQSLSLTCSVTGYSITSGYYWNWIRQFPGNKLEWMGYITYDGSNNYNPSLKNRISITRDTSKNQFFLKLNSVTTEDAATYFCARDPNYYGTTLPAWFVYWGQGTLVTVSA
VL: DIVVTQSHKFMSTSVGDRVSITCKASQDVGTAVAWYQQKPGQSPKLLIYWASTRHTGVPDRFTGSGSGTDFTLTISNVQSEDLTDYFCQQYSSYVTFGAGTKLELK
B2: Ab11 (antibody, V domains shown)
VH: EVMLVESGGDLVKPGGSLKLSCAASGFTFSRYTMSWVRQTPEKRLEWVATVSVGSGNTYYLDSVKGRFTISRDNAKNTLFLQMNSLRSEDTALYYCTRLGQTQRNAVDYWGQGTSVTVSS
VL: DIVMTQSPSFLSVSAGEKVTMSCKSSQSLFNGGNQKNYLAWYQQKPGQPPKLLIYGASTRDSGVPDRFTGSGSGTDFTLTISNVQAEDLAIYFCQNDHSFPLTFGAGTKLELK
B3: Ab16 (antibody, V domains shown)
VH: EVMLVESGGGLVKPGGSLKLSCAASGFTFNSYTMSWVRQTPEKRLEWVATITVIGGNTYYLDSVKGRFTISIDNGKNTLYLQMSSLRSEDTALYYCARMGQTQRNAMDYWGQGTSVTVSS
VL: DIVMTQSPSSLSVSAGQKVTMRCKSSQSLLNSGNQKNYLAWYQQKLGQPPKLLIYGASTRESGVPDRFSGSGSGTDFTLTITSVQAEDLAVYYCQNDYSFPLTFGAGTKLELK
B4: Ab27 (antibody, V domains shown)
VH: QVQLQQSGAELVRPGSSVKISCKASGYAFSNYWMNWVKQRPGQGLEWIGQIYPGNGDTNYNGKFKGKATLTADKSSTTAYIQLSSLTSEDSAVYFCTRIYYGNSFAYWGQGTLVTVS
VL: DIVMTQSPSSLTVTAGERVTMSCKSSQSLLNSGNQKNYLTWYQQKPGQPPKLLIYWASTRESGVPDRFTGSGSGTDFTLTISRVQAQDLAVYYCQNDYYYPLTFGAGTKLELK
B5: Ab12 (antibody, V domains shown)
VH: EVMLVESGGGLVKPGGSLKLSCAASGFTFSSYTMSWVRQTPEKRLEWVATIIGGYGNTYYADSVKGRFTISRDSAKNTLYLQMLSLRSEDTALYYCTRLGQTQRNAMDYWGQGTSVTVSS
VL: B3 VL with V3L, Q17E, R22S, K36R, L46P, S69T, T82S, S99Y, F100Y
B6: Ab05 (antibody, V domains shown)
VH: DVKLVESGEDLVKPGGSLKLSCAASGFTFSNYAMSWVRQTPEKRLEWVAYVSSGGDYIYYADTVKGRFIISRDNARNTLYLQMNSLRSEDTAMYYCARVYFGNSLDYWGQGTTLTVSS
VL: B4 VL with R18K, M21L, S32G, K45R, T80I, R83S, Q87E, L102W, A106G, L112I
B7: Ab30 (antibody, V domains shown)
VH: QVQLKESGPGLVAPSQSLSITCTVSGFSLTKFGVNWVRQPPGKGLEWLGAIWGDGSTNYHSALISRLSINKDNSKSQVFLKLSSLQNVDTATYYCAKSGYGNAMDYWGHGTSVTVSS
VL: DIVMTQSPSSLTVTTGEKVTLNCKSSQSLLNSGNLKNYLTWYQQRPGQPPKLLIYWASTRESGVPYRFTGSGSGTDFTLTISNVQAEDLAIYYCQNDYFFPFTFGSGTKLEIK
B8: Ab04 (antibody, V domains shown)
VH: EVQLQQSGPELVKPGASVKMSCMASGYTFTDYNIHWVKRSHGSRLEWIGYISPISGGAGYNQKFMDKATLTVDKSSNTAYMELRSLTSEDSAVYYCTRGDYWGQGTTLTVSS
VL: DIVMTQSPSSLAVTVGEKVTMSCKSSQSLLNSGNQKNYLTWYQQKPGQPPKLLIYWASTRKSGVPDRFTGSGSGTDFTLTISSVQAEDLGIYYCLNDYGFPLTFGAGSKLELK
B9: Ab34 (antibody, V domains shown)
VH: EVLLQQSGPELVKPGASVKIPCKASGYTFSDYNMDWVKQSHGKSLEWIGHINPNNDNTIYNQKFKGKATLTVDKSSNTAYMDLRSLSSEDTAVYYCARGAYYGNSMDYWGQGTSVTVSS
VL: DIVMTQSPSSLTVTAGERVTMSCKSSQSLLNGGNQRNYLTWYQQKPGQSPKLLIYWASTWESGVPDRFTGSGSGTDFTLTISSVQAEDLAVYYCQNAYFYPYTFGGGTKLEIK
B10: Ab35 (antibody, V domains shown)
VH: DVFLQESGPGLVKPSQSLSLTCTVTGYSITSDYAWNWIRQFPGNKLEWVTYIGYSGTTSYNPSLKSRISITRDTSKNQFFLQLNSVSTEDTATYYCVRRGSYYGSYWFFDVWGAGTTVTVSS
VL: QVVLSQSPAILSASPGEKVTMTCRASSSVSYMHWYQQKPGSSPKPWIYATSNLASGVPPHFSGSGSGTSYSLTISRVEAEDAATYYCQQWTSNPPTFGGGTKLEIK
B11: Ab13 (antibody, V domains shown)
VH: EVRLVESGGGLVKPGGSLKLSCAGSGFTFSSYTMSWVRQTPEKRLEWVATITIGVNIYYLDSVKGRFTISRDNAKNTLYLQMNSLRSEDTALYYCTRLGQTQRNAMDYWGQGTSVTVSS
VL: DIVMTQSPTSLSVSAGEKVTMTCKSSQSLLNSGNQKNYLAWYQEKPGQPPKLLIYGASTRESGVPDRFTGSGSGTDFTLTISSVQAEDLAVYYCQNNHFYPLTFGAGTKLELK
B12: Ab15 (antibody, V domains shown)
VH: EVMLVESGGDLVKPGGSLKLSCAASGFTFSTYTMSWVRQTPEKRLEWVATIVGGGGYTYYLDSVKGRFTISRDNAKNTLYLQMISLRSEDTALYYCARMGLTQRNALDYWGQGTSITVSS
VL: B11 VL with T9S, A15E, M21L, T22N, L30F, E44Q, S73F, N97D, F99T, T108A
B13: Ab07 (antibody, V domains shown)
VH: EVQLQQSGPELVKPGASVKISCKASGYSFTDYFMNWVKQSHGKGLEWIGRINPYNGDTFYNQKFKGKATLTVDKSSSTAHMELLSLTSEDFAVYYCALYDGYWGAFVYWGQGTLVTVSA
VL: DIQMTQSPASLSVFVGETVTITCRASENIYSNLAWYQQKQGKSPQLLVYAATNLADGVPSRFSGSGSGTQYSLKINSLQSEDFGSYYCQHFWGTPLTFGAGTKLELK
B14: Ab31 (antibody, V domains shown)
VH: QIQLAQSGPELKKPGETVKISCKASGYSFTNYGMNWVKQAPGKGLKWMGWINTYSGETKYADDFKGRFDFSLETSARTAYLQIKNLKIEDTATYFCARRDAMDYWGQGTSVTVSS
VL: DIVMTQAAPSVPVTPGESVSISCRSSKSLLNSNGNTYLYWFLQRPGQSPQLLIYRMSNLASGVPDRFSGSGSGTAFTLRISRVEAEDVGVYYCMQHLEFPFTFGSGTKLEIK
B15: Ab03 (antibody, V domains shown)
VH: EVQLQQSGPELVKPGASVKIACKASGYTFTDYNMDWVKQSHGKSLEWIGNINSYYGGTIYNQKFKGKATLTVDKSSSTAYMVLRSLTSEDNAVYYCARPHLGNALDYWGQGTSITVSS
VL: DIVVTQSPSSLTVTPGEKVTMSCKSSQSLFNSGNQKNYLSWYQQNPGQPPKLLIYWASTRQSGVPDRFTGSGSGTDFTLTISSVQAEDLAGYYCQNDYIFPLTFGAGTKLELK
B16: Ab29 (antibody, V domains shown)
VH: EVLLQQSGPELVKPGASVKIPCKASGYTLTDHSMDWVKQSHGKSLEWIGNILPNNGGNIYNQKFRGKATLTVDKSSSTAYMELRSLTSEDTAVYNCARGHYGNSFAYWGQGTLVIVS
VL: DIVMTQSPSSLTVRAGEKVTIYCKSSQSLFNSGNQKNYLTWYQQKPGQPPKLLIYWASTRESGVPHRFTGSGSGTDFTLTISSMQADDLATYYCQNGYFFPYTFGGGTKLEIK
B17: Ab09 (antibody, V domains shown)
VH: EVQLQQSGPELVKPGTSVKMSCKASGYTFTDYNMHWVKLSHGKSLEWIGYINPNNGGTIYNQRFKGKATLTVNKSSRTAYMDLRSLTSEDSAVYYCARQGYYGNSMDYWGQGNSVTVSS
VL: DIVMTQSPSSLTVTPGERVTMSCKSSQSLLNGGNQRNYLTWYQQKPGQPPKLLIYWASTRESGVPDRFAGSGSGTDFTLTISRVQAEDLSFYYCQNSYFYPFTFGSGTKLDLR
B18: Ab26 (antibody, V domains shown)
VH: EVMLVESGGGLVKPGGSLKLSCTASGFTFRSYTMSWVRQTPEKRLEWVATITGGGGNTYFLDSVKGRFTFSRDNAKNALYLQMNSLRSEDTALYYCARLGQTQRNAMDYWGQGTSVTVSS
VL: DIVMTQSPSSLSVSAGEKVTMSCKSSQSLLNSGNQMNYLAWYQQKPGQPPKLLIYGASTRESGVPDRFTGSGSGTDFTLTISSVQAEDLAIYYCQNDHTYPLTFGAGTKLEL
B19: Ab25 (antibody, V domains shown)
VH: EAQLQQSGPELVKPGASVKIFCKASGYTFTDYYINWVKQSHGKSLEWIGDINPNNGGTTYNQKFKGKATLTVDKSSSTASMELRRLTSEDSSVYYCARRDAMDYWGQGTSVTVSS
VL: DIVMTQSQKFMSTTVGDRVSITCTASQNVGPAVAWYQQKPGQSPKLLIYSASRRFTGVPDRFTGSGSGTVFTLTINNVQSEDLADYFCQQYISYPLTFGAGTKLELK
B20: Ab37 (antibody, V domains shown)
VH: EVKLEESGGGLVQPGGSMKLSCVASGFTFSNYWMNWVRQYPEQGLEWVAQIRLNSDNYATHYAESVKGRFTISRDDSRSTVYLQMNNLRAEDTGIYYCTGGGEYWGQGTTLTVSS
VL: B19 VL with V15I, T24K, G30D, P31T, R53T, F55Y, V70D, N76S, V78M, P95Q
B21: Ab06 (antibody, V domains shown)
VH: EVQLVASGGGLVKPGGSLKLSCAASGITFRSYAMSWVRQTPEKRLEWVATITDGGSYIFYPDNVKGRFTISGDHAKNNLYLQMSHLKSEDTALYFCVRLYYGNSFAYWGQGTLVTVSA
VL: DIVMTQSPSSLTVTAGEKVTLNCKSSQSLFNSGNQKNYLTWYQQKPGQPPKLLIYWASTRESGVPDRFTGSGSGTDFTLTFSSVQAEDLAVYYCQNAYIYPFTFGSGTKLEIK

molecular target: mouse Claudine18.2 (mouse) (UniProt P56857); assay: FACS on CHOK1-m18.2 cells

FACS MFI	Binder
12700	B1
11200	B2
14300	B3
8240	B4
13100	B5
12500	B6
9610	B7
8440	B8
10700	B9
9610	B10
12500	B11
12200	B12
15000	B13
7790	B14
2970	B15
21900	B16
12600	B17
15700	B18
23400	B19
18600	B20
13200	B21

molecular target: Rhesus monkey Claudine18.2 (Rhesus monkey) (UniProt F6YQY3); assay: FACS on CHOK1-rh18.2 cells

FACS MFI	Binder
8380	B1
7800	B2
6660	B3
9240	B4
7610	B5
9850	B6
10500	B7
2130	B8
6720	B9
8340	B10
5630	B11
6320	B12
9040	B13
8010	B14
1430	B15
25700	B16
8100	B17
8290	B18
12000	B19
16700	B20
14000	B21
